Laboratory results from patent US20210292423A1 (published 2021).
Read-outs that look alike come from different tables or passages of the source.

Tests used:
[1] = target: T1, human CD3 (TCR complex) on primary human T cells or Jurkat cells (human, UniProt P07766 23-207); test: cell-based or functional assay
[2] = target: T1, human CD3 (TCR complex) on primary …; test: cell-based or functional assay; remark: listed apart in the source
[3] = target: T2, human CD3ε/δ-Fc fusion protein (soluble recombinant CD3ε/δ complex) (human, UniProt P04234 22-105); test: SPR Biacore
T2 construct: also called huCD3ε/δ; huCD3; not shown: hinge, CH2, CH3 of human IgG with tag

[4] = target: T3, human CD123 Strep-II tagged Fc-fusion protein (human); test: SPR Biacore
T3 construct: also called human CD123-Fc; recombinant CD123

[5] = target: T4, human CD123 (IL3RA) on cells (human, UniProt P26951 19-378); test: cell-based or functional assay
[6] = target: T4, human CD123 (IL3RA) on cells; test: cell-based or functional assay; remark: listed apart in the source
[7] = target: T2, human CD3ε/δ-Fc fusion protein (soluble …); test: SPR Biacore; remark: listed apart in the source
[8] = target: T3, human CD123 Strep-II tagged Fc-fusion …; test: SPR Biacore; remark: listed apart in the source
[9] = target: T4, human CD123 (IL3RA) on cells; test: cell-based or functional assay; remark: listed apart in the source

T3 sequence (chain, as listed by the source limits assumed): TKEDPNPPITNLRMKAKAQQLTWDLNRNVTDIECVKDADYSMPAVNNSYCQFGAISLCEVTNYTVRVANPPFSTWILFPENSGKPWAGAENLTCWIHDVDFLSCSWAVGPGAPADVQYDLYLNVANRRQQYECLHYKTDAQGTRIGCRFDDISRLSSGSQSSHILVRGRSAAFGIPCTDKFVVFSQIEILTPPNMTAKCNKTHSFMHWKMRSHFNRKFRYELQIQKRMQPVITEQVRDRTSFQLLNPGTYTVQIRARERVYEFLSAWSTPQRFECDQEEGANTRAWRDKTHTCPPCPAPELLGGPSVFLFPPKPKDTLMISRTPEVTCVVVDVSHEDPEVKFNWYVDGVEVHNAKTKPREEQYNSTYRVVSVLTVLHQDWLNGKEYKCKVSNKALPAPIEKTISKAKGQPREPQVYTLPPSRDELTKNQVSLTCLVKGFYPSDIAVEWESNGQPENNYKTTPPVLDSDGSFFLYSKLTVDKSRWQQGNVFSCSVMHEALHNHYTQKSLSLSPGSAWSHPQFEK
T2 sequence (chain, as listed by the source mutant, chain 1 of 2): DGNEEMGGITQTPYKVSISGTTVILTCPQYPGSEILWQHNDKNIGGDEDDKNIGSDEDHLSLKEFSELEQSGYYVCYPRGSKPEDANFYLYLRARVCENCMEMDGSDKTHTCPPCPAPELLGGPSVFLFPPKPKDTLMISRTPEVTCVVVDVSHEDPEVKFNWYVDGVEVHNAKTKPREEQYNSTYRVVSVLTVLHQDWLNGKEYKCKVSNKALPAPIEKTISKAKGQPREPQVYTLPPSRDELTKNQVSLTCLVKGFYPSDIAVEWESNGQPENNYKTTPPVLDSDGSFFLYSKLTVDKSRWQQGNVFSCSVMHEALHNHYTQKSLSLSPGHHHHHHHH
T2 sequence (P04234 22-105, stated change not applied, chain 2 of 2): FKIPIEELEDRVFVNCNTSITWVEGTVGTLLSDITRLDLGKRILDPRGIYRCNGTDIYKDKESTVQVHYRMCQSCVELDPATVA
T4 sequence (P26951 19-378): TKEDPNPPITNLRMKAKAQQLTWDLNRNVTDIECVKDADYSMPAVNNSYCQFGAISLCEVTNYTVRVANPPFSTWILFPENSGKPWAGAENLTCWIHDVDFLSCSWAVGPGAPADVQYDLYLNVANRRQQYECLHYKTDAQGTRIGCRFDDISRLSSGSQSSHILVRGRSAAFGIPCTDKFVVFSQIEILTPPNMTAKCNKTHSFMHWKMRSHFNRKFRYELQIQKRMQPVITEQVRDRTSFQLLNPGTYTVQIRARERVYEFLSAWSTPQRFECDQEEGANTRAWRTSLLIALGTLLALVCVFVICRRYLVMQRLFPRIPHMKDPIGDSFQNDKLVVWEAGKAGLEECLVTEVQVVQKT
T1 sequence (P07766 23-207, one chain of several): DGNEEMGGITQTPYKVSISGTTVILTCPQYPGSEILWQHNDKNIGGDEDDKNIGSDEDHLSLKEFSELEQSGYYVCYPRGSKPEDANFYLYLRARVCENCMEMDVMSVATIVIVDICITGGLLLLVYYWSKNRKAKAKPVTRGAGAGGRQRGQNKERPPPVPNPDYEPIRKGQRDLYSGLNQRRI

Binder | T cell activation with THP-1 target cells, CD4+ T cells (% CD69+ cells) EC50 (pM) [1] [pM] | T cell activation with THP-1 target cells, CD8+ T cells (% CD69+ cells) EC50 (pM) [1] [pM] | Jurkat-NFAT-Luc reporter, no target cells, activation at Cmax in relation to max. activation in assay with target cells (%) [2] [%] | Jurkat-NFAT-Luc reporter, with THP1 cells, EC50 (pM) [2] [pM] | Kd [3] [nM] | Kd [4] [nM] | Cytotoxic assay (THP cells) EC50 [pM] [5] [pM] | Cytotoxic assay (THP cells) EC50 [pM] [6] [pM] | Kd [7] [nM] | Kd [8] [nM] | Cytotoxicity (THP-1) geomean EC50 [9] [ng/mL] | Cytotoxicity (THP-1) geomean EC50 [pM] [9] [pM]
CODV-Fab-TL1 hz20G6xhz7G3 antibody-like binding protein (bispecific antibody, human IgG1, kappa, L234A L235A, one chain of formula IV and one of formula III, IgG1 backbone; also called hz20G6xhz7G3 CODV-Fab-TL1) light: DIVMTQSPDSLAVSLGERATINCESSQSLLNSGNQKNYLTWYQQKPGQPPKPLIYWASTRESGVPDRFSGSGSGTDFTLTISSLQAEDVAVYYCQNDYSYPYTFGQGTKLEIKGGSGSSGSGGDIVMTQTPLSLSVTPGQPASISCKSSQSLVHNNANTYLSWYLQKPGQSPQSLIYKVSNRFSGVPDRFSGSGSGTDFTLKISRVEAEDVGVYYCGQGTQYPFTFGSGTKVEIKGGSGSSGSGGRTVAAPSVFIFPPSDEQLKSGTASVVCLLNNFYPREAKVQWKVDNALQSGNSQESVTEQDSKDSTYSLSSTLTLSKADYEKHKVYACEVTHQGLSSPVTKSFNRGECDKTHTCPPCPAPEAAGGPSVFLFPPKPKDTLMISRTPEVTCVVVDVSHEDPEVKFNWYVDGVEVHNAKTKPREEQYNSTYRVVSVLTVLHQDWLNGKEYKCKVSNKALPAPIEKTISKAKGQPREPQVYTLPPSRDELTKNQVSLTCLVKGFYPSDIAVEWESNGQPENNYKTTPPVLDSDGSFFLYSKLTVDKSRWQQGNVFSCSVMHEALHNRFTQKSLSLSPG heavy: not shown | 3.2 | 9.9 | 0.4 | 444 | 11 | 0.2 | 1 |  |  |  |  | 
CODV-Fab hz4B4x3E3 antibody-like binding protein (bispecific antibody, also called hz4B4 × 3E3 CODV-Fab) light: QFVLTQPNSVSTNLGSTVKLSCKRNTGNIGSNYVNWYQQHEGRSPTTMIYRDDKRPDGVPDRFSGSIDRSSNSALLTINNVQTEDEADYFCQSYSSGINIIFGGGTKLTVLGQPKAAPDVVMTQTPVSLSVSVGGRVSISCRSSQSLVHDNGNTYLSWSLQKPGKSPKVLIYKVSNRFSGVSSRFTGSGSGTDFTLKISSVQPDDLGVYYCGQGTQYPFTFGSGTKLEIKTKGPSRTVAAPSVFIFPPSDEQLKSGTASVVCLLNNFYPREAKVQWKVDNALQSGNSQESVTEQDSKDSTYSLSSTLTLSKADYEKHKVYACEVTHQGLSSPVTKSFNRGEC heavy: QVQLVETGGGLVKPGQSLKLTCATSGFTFSNAWMHWVRQSPEKGLEWVAQIKARSNNYATYYAESVKGRFTISRDDSKSTIYLQMNSLTPEDTAIYYCRGTYYASKPFDYWGQGVMVTVSSSQVQLQESGPGLVQPSQTLSLTCTVSGFSLTTYDVHWVRQPPGKGLEWMGRIQNGGITDYNSALKSRLIISRDTSKSQVFLKMNSVQTEDTAMYFCAKTGSYFYAFDHWGQGTLVTVSSRTASTKGPSVFPLAPSSKSTSGGTAALGCLVKDYFPEPVTVSWNSGALTSGVHTFPAVLQSSGLYSLSSVVTVPSSSLGTQTYICNVNHKPSNTKVDKKVEPKSCDKTHTHHHHHH |  |  |  |  |  |  |  | 26.5 | 7 | 4.8 | 2 | 26.5
single chain CD123 × CD3 bi-specific diabody in DART format MGD006 (bispecific antibody, two chains covalently bonded by a disulfide bond; also called Single chain antibody DART format MGD006) chain 1: QAVVTQEPSLTVSPGGTVTLTCRSSTGAVTTSNYANWVQQKPGQAPRGLIGGTNKRAPWTPARFSGSLLGGKAALTITGAQAEDEADYYCALWYSNLWVFGGGTKLTVLGGGGSGGGGEVQLVQSGAELKKPGASVKVSCKASGYTFTDYYMKWVRQAPGQGLEWIGDIIPSNGATFYNQKFKGRVTITVDKSTSTAYMELSSLRSEDTAVYYCARSHLLRASWFAYWGQGTLVTVSSGGCGGGEVAALEKEVAALEKEVAALEKEVAALEK chain 2: DFVMTQSPDSLAVSLGERVTMSCKSSQSLLNSGNQKNYLTWYQQKPGQPPKLLIYWASTRESGVPDRFSGSGSGTDFTLTISSLQAEDVAVYYCQNDYSYPYTFGQGTKLEIKGGGSGGGGEVQLVESGGGLVQPGGSLRLSCAASGFTFSTYAMNWVRQAPGKGLEWVGRIRSKYNNYATYYADSVKDRFTISRDDSKNSLYLQMNSLKTEDTAVYYCVRHGNFGNSYVSWFAYWGQGTLVTVSSGGCGGGKVAALKEKVAALKEKVAALKEKVAALKE | 1 | 3.5 | 25.1 | 370 | 9 | 0.2 | 0.3 |  |  |  |  | 
